Results reported in paper doi:10.1101/2022.08.24.505111 (bioRxiv, 2022).

Molecular target: the molecule itself
Test: crystal structure

B1: Chloramphenicol acetyltransferase III (CATIII+GG construct) (enzyme)
chain: SGGNYTKFDVKNWVRREHFEFYRHRLPCGFSLTSKIDITTLKKSLDDSAYKFYPVMIYLIAQAVNQFDELRMAIKDDELIVWDSVDPQFTVFHQETETFSALSCPYSSDIDQFMVNYLSVMERYKSDTKLFPQGVTPENHLNISALPWVNFDSFNLNVANFTDYFAPIITMAKYQQEGDRLLLPLSVQVHHAVCDGFHVARFINRLQELCNSKLK
stoichiometry N: 3
